Assay results taken from US20260035462A1.

How the values were obtained:
[1] = molecular target: biotinylated anti-human CD3ε antibody (capture surface of Example 6); test: SPR Biacore T200; IgG 1 ug/ml over captured biotinylated anti-human CD3ε antibody, normalised to anti-human IgG surface and to the unstressed sample; sample stressed 14 d/40° C. pH 6.0
[2] = molecular target: biotinylated anti-human CD3ε antibody (capture surface of Example 6); test: SPR Biacore T200; IgG 1 ug/ml over captured biotinylated anti-human CD3ε antibody, normalised to anti-human IgG surface and to the unstressed sample; sample stressed 14 d/37° C. pH 7.4

Row | Relative active concentrations (%) [1] | Relative active concentrations (%) [2] | Binder
1 | 98% | 93% | P1AF1284 H2L2 anti-idiotypic IgG1 (antibody, V domains shown) VH: QVQLVQSGSELKKPGASVKVSCKASGYTVTDYSMNWVRQAPGQGLEWMGWINTETGEPRYTDDFTGRFVFSLDTSVSTAYLQISSLKAEDTAVYYCAREGDYDVFDYWGQGTLVTVSS VL: DIVMTQSPDSLAVSLGERATINCKSSKSVSTSSYSYMHWYQQKPGQPPKLLIKYVSYLESGVPDRFSGSGSGTDFTLTISSLQAEDVAVYYCQHSREFPYTFGQGTKLEIK
2 | 98% | 80% | P1AF1287 H7L5 anti-idiotypic IgG1 (antibody, V domains shown) VH: QVQLVQSGAEVKKPGASVKVSCKASGYTVTDYSMNWVRQAPGQGLEWMGWINTETGEPRYTDDFKGRVTMTRDTSISTAYMELSRLRSDDTAVYYCAREGDYDVFDYWGQGTLVTVSS VL: DIVMTQSPDSLAVSLGERATINCRASKSVSTSSYSYMHWYQQKPGQPPKLLIYYVSYLESGVPDRFSGSGSGTDFTLTISSLQAEDVAVYYCQHSREFPYTFGQGTKLEIK
3 | 97% | 94% | P1AF1283 H1L2 anti-idiotypic IgG1 (antibody, V domains shown) VH: QVQLVQSGSELKKPGASVKVSCKASGYTVTDYSMNWVRQAPGQGLEWMGWINTETGEPRYTDDFKGRFVFSLDTSVSTAYLQISSLKAEDTAVYYCAREGDYDVFDYWGQGTLVTVSS VL: DIVMTQSPDSLAVSLGERATINCKSSKSVSTSSYSYMHWYQQKPGQPPKLLIKYVSYLESGVPDRFSGSGSGTDFTLTISSLQAEDVAVYYCQHSREFPYTFGQGTKLEIK
4 | 99% | 93% | P1AF1281 H1L1 anti-idiotypic IgG1 (antibody, V domains shown) VH: QVQLVQSGSELKKPGASVKVSCKASGYTVTDYSMNWVRQAPGQGLEWMGWINTETGEPRYTDDFKGRFVFSLDTSVSTAYLQISSLKAEDTAVYYCAREGDYDVFDYWGQGTLVTVSS VL: DIVMTQSPDSLAVSLGERATINCRASKSVSTSSYSYMHWYQQKPGQPPKLLIKYVSYLESGVPDRFSGSGSGTDFTLTISSLQAEDVAVYYCQHSREFPYTFGQGTKLEIK
5 | 97% | 87% | P1AF1286 H3L3 anti-idiotypic IgG1 (antibody, V domains shown) VH: QVQLVQSGSELKKPGASVKVSCKASGYTVTDYSMNWVRQAPGQGLEWMGWINTETGEPRYTQGFKGRFVFSLDTSVSTAYLQISSLKAEDTAVYYCAREGDYDVFDYWGQGTLVTVSS VL: DIVMTQSPDSLAVSLGERATINCRASKSVSTSSYSYMHWYQQKPGQPPKLLIKYVSYLESGVPDRFSGSGSGTDFTLTISSLQAEDVAVYYCQQSREFPYTFGQGTKLEIK
6 | 97% | 94% | P1AF1285 H3L2 anti-idiotypic IgG1 (antibody, V domains shown) VH: QVQLVQSGSELKKPGASVKVSCKASGYTVTDYSMNWVRQAPGQGLEWMGWINTETGEPRYTQGFKGRFVFSLDTSVSTAYLQISSLKAEDTAVYYCAREGDYDVFDYWGQGTLVTVSS VL: DIVMTQSPDSLAVSLGERATINCKSSKSVSTSSYSYMHWYQQKPGQPPKLLIKYVSYLESGVPDRFSGSGSGTDFTLTISSLQAEDVAVYYCQHSREFPYTFGQGTKLEIK
